Test results: patent publication US20140072582A1

Target: complement component C1q human serum (Sigma Cat#:C1740-0.5MG) (human) (UniProt P02745)
Assay: ELISA, C1q coated on the plate

Chain of UniProt P02745 (P02745 23-245 limits assumed, chain 1 of 3): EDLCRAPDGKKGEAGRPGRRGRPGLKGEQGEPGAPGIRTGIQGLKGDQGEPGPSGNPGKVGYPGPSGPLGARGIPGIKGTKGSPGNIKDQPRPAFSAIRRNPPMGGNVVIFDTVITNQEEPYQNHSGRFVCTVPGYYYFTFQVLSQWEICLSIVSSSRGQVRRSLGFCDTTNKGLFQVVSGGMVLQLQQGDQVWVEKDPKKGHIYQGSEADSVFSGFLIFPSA
Chain of UniProt P02745 (P02746 28-253 limits assumed, chain 2 of 3, further chain): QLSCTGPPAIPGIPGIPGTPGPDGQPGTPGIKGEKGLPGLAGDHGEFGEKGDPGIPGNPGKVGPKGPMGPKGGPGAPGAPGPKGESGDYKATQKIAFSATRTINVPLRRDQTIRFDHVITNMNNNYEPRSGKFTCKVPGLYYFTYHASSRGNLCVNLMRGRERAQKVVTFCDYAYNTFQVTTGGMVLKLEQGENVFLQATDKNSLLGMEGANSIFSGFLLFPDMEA
Chain of UniProt P02745 (P02747 29-245 limits assumed, chain 3 of 3, further chain): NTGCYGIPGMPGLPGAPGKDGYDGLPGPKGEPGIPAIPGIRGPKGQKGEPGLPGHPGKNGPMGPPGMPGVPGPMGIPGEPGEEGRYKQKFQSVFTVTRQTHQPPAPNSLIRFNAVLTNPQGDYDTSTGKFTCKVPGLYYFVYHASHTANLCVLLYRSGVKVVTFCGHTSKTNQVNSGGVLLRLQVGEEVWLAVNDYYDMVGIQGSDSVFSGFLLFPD

EC50	Substance
34.5 µg/mL	GB4500 (Rituximab), anti-CD20 monoclonal antibody
202 µg/mL	GB7500 (Adalimumab), anti-TNF monoclonal antibody
